As a reminder, the Km is the substrate concentration at which the rate is half of its maximum. A word on the kcat: it is the maximal rate divided by the concentration of active sites. What is called Kd is the equilibrium constant for the complex coming apart.

This note sets out measurements from PMC4876393, “Structure of the Dictyostelium Myosin-II Heavy Chain Kinase A (MHCK-A) α-kinase domain apoenzyme reveals a novel autoinhibited conformation” (Scientific Reports, 2016).

Non-standard residues stand in square brackets, D forms with d. No end group written: not given here. pT = C[C@@H](OP(=O)(O)O)[C@H](N)C(=O)O

Data set [1] deals with T1, Nc1ncnc2c1ncn2[C@@H]1O[C@H](COP(=O)(O)OP(=O)(O)OP(=O)(O)O)[C@@H](O)[C@H]1O.
T1 construct: A-CAT: alpha-kinase domain and Thr825 autophosphorylation site of MHCK-A
The data set is described as follows: Radiometric kinase assay with [γ-32P]ATP and 20 μM myelin basic protein as phosphate acceptor (P81 paper) at 22 °C in 2 mM MgCl2, 1 mM dithiothreitol, 20 mM TES, pH 7.0. The class given is biochemical. As for the experimental part:
(§1) Assays were carried out at 22 °C in a buffer containing 2 mM MgCl2, 1 mM dithiothreitol and 20 mM TES, pH 7.0. Kinase assays contained 20 μM myelin basic protein (MBP), 0.5–2 μM A-CAT and 200 μM [γ-^32P]ATP (specific activity 100 cpm/pmol). At each time point, 20 μl aliquots of the reaction mixture were spotted onto squares of Whatman P81 phosphocellulose paper, which were then washed 1% phosphoric acid, immersed in ScintiVerse Universal LS Mixture (Fisher Scientific), and counted using a Beckman LS 9000 scintillation counter. Assays to measure A-CAT-Δ809 activity in the presence of the QQG(p)TMVMPD and QQG(p)TMSMPD peptides were carried out as described. ATPase activity was assayed using 250 μM ATP and release of inorganic phosphate (Pi) was measured using the Pi ColorLock Gold phosphate detection system (Innova Biosciences). Data from the initial linear portion of the time courses were used to calculate kinase and ATPase activity. Nucleotide binding assays using mant-ATP and mant-ADP were carried out as previously described. Results represent the mean and standard deviation of at least 3 separate experiments.

Data set [2] has the same test system. The data set can be described thus: ATPase assay by inorganic phosphate release (Pi ColorLock Gold) at 22 °C in 2 mM MgCl2, 1 mM dithiothreitol, 20 mM TES, pH 7.0. The class given is biochemical. As for the experimental part:
as §1

The target in data set [3] is T2, D663A (Dictyostelium discoideum, UniProt P42527, D663A).
T2 construct: gene mhkA; A-CAT: alpha-kinase domain and Thr825 autophosphorylation site of MHCK-A; expressed in E. coli
T2 sequence (P42527 552-841 D663A): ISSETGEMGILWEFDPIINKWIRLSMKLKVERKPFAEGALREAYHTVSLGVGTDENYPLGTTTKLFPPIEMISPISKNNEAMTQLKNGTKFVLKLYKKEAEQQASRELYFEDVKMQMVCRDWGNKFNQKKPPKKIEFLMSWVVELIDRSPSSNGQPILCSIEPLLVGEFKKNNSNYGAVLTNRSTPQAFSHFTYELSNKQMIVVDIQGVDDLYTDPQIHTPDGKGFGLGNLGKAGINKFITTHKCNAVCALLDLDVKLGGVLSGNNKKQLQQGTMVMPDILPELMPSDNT
The data set can be described thus: Nucleotide binding assay with fluorescent mant-ATP on purified A-CAT, carried out as previously described (ref 51); at least 3 separate experiments. The following applies: read-out: mant-ATP Kd; SD, n = 3. As to the method:
as §1

Data set [4] deals with T3, Y647F (Dictyostelium discoideum, UniProt P42527, Y647F).
T3 construct: gene mhkA; A-CAT: alpha-kinase domain and Thr825 autophosphorylation site of MHCK-A
T3 sequence (P42527 552-841 Y647F): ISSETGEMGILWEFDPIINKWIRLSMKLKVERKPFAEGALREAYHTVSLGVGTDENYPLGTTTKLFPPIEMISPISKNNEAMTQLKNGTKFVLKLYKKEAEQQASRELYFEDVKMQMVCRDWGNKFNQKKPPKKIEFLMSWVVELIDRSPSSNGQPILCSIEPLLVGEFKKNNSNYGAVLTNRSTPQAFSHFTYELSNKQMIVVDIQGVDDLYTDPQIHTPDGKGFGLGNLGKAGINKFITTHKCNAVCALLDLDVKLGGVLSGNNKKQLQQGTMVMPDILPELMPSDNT
The data set is described as above. As to conditions: read-out: mant-ATP Kd; SD, n = 3. As to the method:
as §1

Data set [5] concerns the target T4, Y647A (Dictyostelium discoideum, UniProt P42527, Y647A).
T4 construct: gene mhkA; A-CAT: alpha-kinase domain and Thr825 autophosphorylation site of MHCK-A
T4 sequence (P42527 552-841 Y647A): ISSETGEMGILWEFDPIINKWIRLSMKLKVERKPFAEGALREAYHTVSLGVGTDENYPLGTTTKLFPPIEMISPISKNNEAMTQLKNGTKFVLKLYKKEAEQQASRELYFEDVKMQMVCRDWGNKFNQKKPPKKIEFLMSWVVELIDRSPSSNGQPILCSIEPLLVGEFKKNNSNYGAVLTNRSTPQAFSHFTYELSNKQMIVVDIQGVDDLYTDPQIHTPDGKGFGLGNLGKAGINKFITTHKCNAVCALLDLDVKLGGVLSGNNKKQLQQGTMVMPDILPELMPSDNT
Described as above. As to conditions: read-out: mant-ATP Kd; SD, n = 3. As to the method:
as §1

In data set [6] the target is T5, D663S (Dictyostelium discoideum, UniProt P42527, D663S).
T5 construct: gene mhkA; A-CAT: alpha-kinase domain and Thr825 autophosphorylation site of MHCK-A
T5 sequence (P42527 552-841 D663S): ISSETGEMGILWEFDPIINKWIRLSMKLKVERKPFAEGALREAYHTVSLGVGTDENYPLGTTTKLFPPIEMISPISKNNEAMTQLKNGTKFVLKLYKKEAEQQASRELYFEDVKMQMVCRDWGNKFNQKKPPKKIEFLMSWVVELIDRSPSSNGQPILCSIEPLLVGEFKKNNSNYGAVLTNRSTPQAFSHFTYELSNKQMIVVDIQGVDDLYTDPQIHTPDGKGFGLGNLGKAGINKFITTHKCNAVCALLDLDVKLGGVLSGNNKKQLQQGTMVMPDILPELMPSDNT
The data set is described as above. As to conditions: read-out: mant-ATP Kd; SD, n = 3. As for the experimental part: as §1

The target in data set [7] is T6, A-CAT WT (Dictyostelium discoideum, UniProt P42527).
T6 construct: gene mhkA; A-CAT: alpha-kinase domain and Thr825 autophosphorylation site of MHCK-A; expressed in E. coli
T6 sequence (P42527 552-841): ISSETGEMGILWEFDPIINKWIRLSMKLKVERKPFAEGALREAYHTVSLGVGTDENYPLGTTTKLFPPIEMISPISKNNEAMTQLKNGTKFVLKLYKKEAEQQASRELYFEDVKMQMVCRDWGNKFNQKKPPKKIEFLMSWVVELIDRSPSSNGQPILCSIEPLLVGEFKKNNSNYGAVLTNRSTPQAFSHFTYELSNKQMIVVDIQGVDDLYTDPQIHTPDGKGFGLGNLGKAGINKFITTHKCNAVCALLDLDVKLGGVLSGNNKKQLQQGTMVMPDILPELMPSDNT
The data set is described as above. The following applies: SD, n = 3. As for the experimental part:
as §1

For data set [8], the system named is T7, Nc1ncnc2c1ncn2[C@@H]1O[C@H](COP(=O)(O)OP(=O)(O)OP(=O)(O)O)[C@@H](O)[C@H]1O.
T7 construct: A-CAT: alpha-kinase domain and Thr825 autophosphorylation site of MHCK-A; expressed in E. coli
The data set can be described thus: Radiometric kinase assay with [γ-32P]ATP and 20 μM myelin basic protein as phosphate acceptor (P81 paper) at 22 °C in 2 mM MgCl2, 1 mM dithiothreitol, 20 mM TES, pH 7.0. The class given is biochemical. As for the experimental part: as §1

The test system is the same in data set [9]. The data set is described as follows: ATPase assay by inorganic phosphate release (Pi ColorLock Gold) at 22 °C in 2 mM MgCl2, 1 mM dithiothreitol, 20 mM TES, pH 7.0. Type of data set: biochemical. As for the experimental part:
as §1

Data set [10] addresses A-CAT-Δ809, truncated A-CAT that lacks the activating Thr825 site of autophosphorylation (Dictyostelium).
Substrate in data set [11]: Nc1ncnc2c1ncn2[C@@H]1O[C@H](COP(=O)(O)OP(=O)(O)OP(=O)(O)O)[C@@H](O)[C@H]1O
The data set can be described thus: Radiometric kinase assay with [γ-32P]ATP and 20 μM myelin basic protein as phosphate acceptor (P81 paper) at 22 °C in 2 mM MgCl2, 1 mM dithiothreitol, 20 mM TES, pH 7.0. The class given is biochemical. As for the experimental part: as §1

Substrate in data set [12]: Nc1ncnc2c1ncn2[C@@H]1O[C@H](COP(=O)(O)OP(=O)(O)OP(=O)(O)O)[C@@H](O)[C@H]1O
The data set can be described thus: ATPase assay by inorganic phosphate release (Pi ColorLock Gold) at 22 °C in 2 mM MgCl2, 1 mM dithiothreitol, 20 mM TES, pH 7.0. Type of data set: biochemical. As for the experimental part:
as §1

Data set [13] can be described thus: ATPase activity of A-CAT and mutants (phosphate release). The class given is biochemical. As to conditions: 22 °C, 2 mM MgCl2, 20 mM TES, pH 7.0; Pi ColorLock Gold phosphate detection; mean and standard deviation of at least 3 separate experiments. As to the method: as §1
Data set [14] deals with myelin basic protein (MBP). The data set is described as follows: Kinase activity of A-CAT and mutants towards myelin basic protein. Type of data set: biochemical. The following applies: 20 μM MBP, 0.5–2 μM A-CAT, [γ-^32P]ATP; 22 °C, pH 7.0; mean and standard deviation of at least 3 separate experiments. As to the method: as §1

Take D663S (Dictyostelium discoideum; D663S): in data set [1], the Km amounted to 29 ± 16 µM and the turnover number (kcat) is 0.00103 ± 0.000117 s⁻¹. For the same molecule, in [2], the Michaelis constant (Km) stood at 31 ± 7 µM and the turnover number (kcat) amounted to 0.00733 ± 0.00267 s⁻¹.

`CNc1ccccc1C(=O)O[C@H]1[C@@H](O)[C@H](n2cnc3c(N)ncnc32)O[C@@H]1CO[P@@](=O)(O)O[P@](=O)(O)OP(=O)(O)O` [mant-ATP, 2'/3'-O-(N-methylanthraniloyl)adenosine 5'-triphosphate]: the equilibrium dissociation constant (Kd) in data set [3] was 3.2 ± 0.9 µM; in [4], 4.3 ± 1 µM; in [5], 10 ± 3 µM; in [6], 2.1 ± 0.5 µM; in data set [7], 4.8 ± 0.6 µM.

With D663A (Dictyostelium discoideum; D663A), in [8], the Michaelis constant (Km) was found to be 54 ± 25 µM and the kcat worked out at 0.00105 ± 0.000117 s⁻¹. For the same molecule, in data set [9], the Michaelis-Menten constant (Km) worked out at 21 ± 5 µM and the catalytic constant (kcat) was determined as 0.0167 ± 0.00333 s⁻¹.

QQG[pT]MVMPD [QQG(p)TMVMPD phosphopeptide]: in data set [10], the kinase activity of A-CAT-Δ809 assayed in the presence of the peptide; Kd from a hyperbolic curve fit came to 38 µM.

With QQG[pT]MSMPD [QQG(p)TMSMPD phosphopeptide], the kinase activity of A-CAT-Δ809 assayed in the presence of the peptide; Kd from a hyperbolic curve fit in data set [10] came to 98 µM.

B1: A-CAT WT (Dictyostelium discoideum) (protein)
chain: ISSETGEMGILWEFDPIINKWIRLSMKLKVERKPFAEGALREAYHTVSLGVGTDENYPLGTTTKLFPPIEMISPISKNNEAMTQLKNGTKFVLKLYKKEAEQQASRELYFEDVKMQMVCRDWGNKFNQKKPPKKIEFLMSWVVELIDRSPSSNGQPILCSIEPLLVGEFKKNNSNYGAVLTNRSTPQAFSHFTYELSNKQMIVVDIQGVDDLYTDPQIHTPDGKGFGLGNLGKAGINKFITTHKCNAVCALLDLDVKLGGVLSGNNKKQLQQGTMVMPDILPELMPSDNT
notes: A-CAT: alpha-kinase domain and Thr825 autophosphorylation site of MHCK-A; expressed in E. coli
Consider B1, for which the Michaelis constant (Km) in data set [11] was found to be 23 ± 5 µM; in [12] it was 35 ± 4 µM. The kcat in [11] was found to be 0.0967 ± 0.00667 s⁻¹; in data set [12], 0.0317 ± 0.00167 s⁻¹.

B2: WT: α-kinase domain and Thr825 autophosphorylation site of MHCK-A (protein)
chain: ISSETGEMGILWEFDPIINKWIRLSMKLKVERKPFAEGALREAYHTVSLGVGTDENYPLGTTTKLFPPIEMISPISKNNEAMTQLKNGTKFVLKLYKKEAEQQASRELYFEDVKMQMVCRDWGNKFNQKKPPKKIEFLMSWVVELIDRSPSSNGQPILCSIEPLLVGEFKKNNSNYGAVLTNRSTPQAFSHFTYELSNKQMIVVDIQGVDDLYTDPQIHTPDGKGFGLGNLGKAGINKFITTHKCNAVCALLDLDVKLGGVLSGNNKKQLQQGTMVMPDILPELMPSDNT
modifications: phosphothreonine at 612 (P-Thr612); phosphoaspartate at 663 (P-Asp663)
notes: α-kinase domain and Thr825 autophosphorylation site of MHCK-A
B2: the “ATPase Activity kcat” value in data set [13] is 0.0317 ± 0.0017 s⁻¹. The “Kinase Activity kcat” value in data set [14] came to 0.0967 ± 0.0067 s⁻¹.
